The source of these data is a protein production outcome set (Wang et al. 2014).

The nature of this data set: label from the status in PepcDB records.
As for “MRDRGDKPAEAGLGLTQTRQEDPAAMIDLYYAPTPNGWKISIMLEECGLPYKVVPMQLGRGDQHQPGFLKLSPNGRMPAIVDHAPIGGGAPLSVFESGAILIYLAEKSGQLMPTETRARFEVMQWLMWQMAGLGPMLGQNGHFLLYAPEKIPYAIDRYSREAKRLYGVLDQRLADRACIAGDYSIADIACFPWIMTHKAQGLTLDDYPNIKRWYAALRARPKLQAGLALGKEDKKPMDEQARKLLFGVDKPAHADAQAQSAQQQ”, the protein production entry is on record as “not failed”.
For the sequence “MRRLPPWMLGGASTGEAAARNGSQPEAPKTKAEKRPKRVQKTKEKDLNLKSDEPKRVPRKIREEAKRSPEVIQSVTVPEDDDLTVDDLLSFANEVM”, the protein production entry was “failed”.
Turning to “MDVTIERVNDFDGYNWLPLLAKSSQEGFQLVERMLRNRREESFQEDGEAMFVALSTTNQVLACGGYMKQSGQARTGRIRHVYVLPEARSHGIGTALLEKIMSEAFLTYDRLVLYSEQADPFYQGLGFQLVSGEKITHTLDKTAFADSNR”, the protein production result was “not failed”.
As to “MFMFRNCAVLLVIGSICCFIYGLFRLHVEVEPNACRMTYMFGEPMFAKVGVRDGDQYPNYALYYYYEGLRQPLDPLKRRMTGAPVIFVPGNAGSYKQVRSLASVALRKAMSNDAGIHLDYYTIDYDEELSALYGGYLHRQQSYLKLCIRTILSIYEGRTEQPSIVLIGHSMGGKLAQSVLVDPAIGQHINTIISISTPLDQPVLNLDTQLEEFYDQTDAVLSKLRTATVPTMTTNVCDSLHQRPPSVQRMASQDSSARLDNVLLISTGGGNRDLLVRPGLTSSRFNDLHAMTSAIPKVSLSCDHLSAVWCLQFMQAINRFLFSVAYVREDRSSIAFGTNKQRNLQTALSTFVKPRRRQQNTVRFGAAGNWHEERRLVINKYFTNGLKGTFFDLIGLQRQERYRKAAIEALNVDDEDWLFGCSAEDNNKTGQLYCEKATSLMHLVQWLPNEDREPRSIALLDLHNLRKTYVHWTHLLVRLPPSAKRIGYNLDIYDPKERVTDIKMPRWYTMAKLPLINETLQGTLHHRVRISEMVDPYQSIRVIVEPLQCINPEYRVTARICVPWAAGFERFQTLKSFDQKPQLYVNVPTLVPRHYNTTLNPVTLELYLDPTCRYRISYEYSYSSALSRLVLEFYGWLPAHLVCVLLIVLRKQVETFYDVGTFRSLRPYVGYLQYTSLYIVTACRLLKKLIISSRVFPEPEPLDYSINVSIVIHCAAIALSLLATLGTWLALTLYGNAFYRLALRITRLSQATSNVMISIMTHLPITYGILTIATAMGTCSGVGLLLAFVFYFLMLSNAYKDYLEDFLWQKAANLVRGKPSAVTEQEDATEEQNEEQNALKQNDEQKQQQQEEEEPEACVGLQNFSFHVTLLLMLFVQLLLNAPSSLAWLRSRRHGINLPDPSLYPSIVVLASLSLLLQLRAPQKCQGYWMLSIAFYILAGVVLLYCQAAIYRLTYVIAGAFALLSAHQSLWILWGRVSRV”, the protein production result is reported as “failed”.
Turning to “AGSMEDIPVEEAVLTGVATDNSEAKITVLGIPDSPGSASAVFRALADAEINIDTVLQNISSLEDNRTDITFTCPRADGPHAMELLRNLQAKNDWQNVLYDDQIGKVSLVGAGMKSHPGVTAEFCEALRDAGVNIELISTSEIRISVLIRESDVDVAARAIHEKFELGGETEAIVYAGTGR”, the protein production result is “failed”.
Take “MKLKEVTEGKVRIFVPDPTGYMVEGKFDPSWAPVFYNPKMTFNRDLSVIVVSILKPKIIVDALSATGIRGIRYYVESWKSEQLILNDKNPNATSLIQINAKNNGIENAKIYNKDANALLYEVKSDYIDIDPFGSPAPFILSSLNAATRNGIVAFTATDLSPLEGSSPTSCRRKYDAINHKLSSSKELGLRVLIGKIIREAAILEKTVYPLFSFYADYYYRLFVRVENGARKADDNINKHLKYFGECPRCGFQTFVEENCKTKCPVCGEIFSIIGPLYIGPLYSMEFLKRIMDLYSNFNYLTSFNRIQKLLNVIEKEARFKNVFYNISKLASKLKISAIPPIESILECLGDASRTHFAPTGIRTDKEYEEITKCIKSLR”: the protein production result is “failed”.
For “MSVDPMTYEAQFFGFTPQTCMLRIYIAFQDYLFEVMQAVEQVILKKLDGIPDCDISPVQIRKCTEKFLCFMKGHFDNLFSKMEQLFLQLILRIPSNILLPEDKCKETPYSEEDFQHLQKEIEQLQEKYKTELCTKQALLAELEEQKIVQAKLKQTLTFFDELHNVGRDHGTSDFRESLVSLVQNSRKLQNIRDNVEKESKRLKIS”, the protein production result is “failed”.
Take “MRIIFKIIAFLSFFAFLSGCGAGLTAFSKGERLEREGKLDEAVIKYSEAVASNPEMNEYRMRLLKTSEEAALRHLSKGDEFIALKNYDAALVEYQAAVALDPSLQRAKQESDKLVRQKNSRTYFKEGQDFERGNKPREALQAYRKALDLDGQNKEAKEALERLLSTKKTRLEGYELNLKSTKPITLKFKDANLKDVFYIVTQLSGINFIFDDTIKDQKVTIYLENANFQQALDLLTNMNKLGKKVLNESTILIFPKTPEKSKQYEDLVVKTFFLNTLDAKKAVNLLRTMLQVRKVYVNEELNAIVVRDTSELVDVAGKILEANDVPDAEVLLDVEVIEVSKRNIENFGLALSKYAVSLNTQTPGGGFLNDTFSRASVSSSTGTTIQGTAGSELLQTFSWNGYSGFMTVPSASYSFGKSITNAEVLANPKIRVKNREKSKFTVGTRVPITTTSTTGTTGGFSVNVQYVDVGVKLNAEPTIMLNNEVSIKLGLEVSSIIDKQTVGGTDSATTVVTIGTRNLDTVLNLKDGETSVIGGLIEDNKQKGKQKIFLLGDIPIIGPLLSNNSNDNQKRELILAITPRLVRSVTVPEPDLVSFWSGKEDDPSVVKPFASFELEPEFAIGQPKTVKQPAASPAPVPASVSAPAQRVAPLQPVPGSPAPTAAPQTTTSPEVKQSAAPAPGQQPAPPSTAQSQAVAPLPVPASPAAPAATVAAASAVPVAAAPAPAVRGSLNISAPAAVNLGSQFKVEIRVSDVKGLLKAPFVLIYDPIFIDYVGAVEGTFLNRDGKPTSFNAQVDKAKGRVTITLARTGAEGIDGAGSLLTATFTAKNKGPASLGLQSVNFTDQANKPIDVVPYNTVVEVK”: the protein production entry is “failed”.
Consider “FIFFNQPKTPEESIQLLGAQAGDTESFRVTLDRIPPQIQKLSFTATLDGAGQMSQVAPGYLRIVAGGEEVARYSFTGSEFSTERAVMLGDFYLKDVWRFAAVGQGFDGGLDALL”, for which the protein production entry is on record as “failed”.
On to “MTRACNLYVFKNKYVSFNLLDSPNSNPKLLKISLPFNFMDEFEGLLKAVGSAPWYKLIGMVPKLQGDRVVVEMEIDRSKHLQALGTTHGGAIASVLDSAIGLNVNREVVKMGKTAVTAQLNIHYIRPVTEGKIVGVGMPMHIGSKVTVGYGEVRNEEGELVAAGTATFYIIDRRFRDLEHHHHHH”, for which the protein production entry is given as “failed”.
For “MICKLKLLSLPSYSSKPCNFYIHLKCSELPQKIRHPFDRNHLLSLISSPKYQEGRFRCNACGKDGDRLAYHCGDCGIDLHTVCANMPSRVTHQSHPHHQLSLTFSMPPGGPGSAAASSFQCCVCRGLGSNSWLYSCGECSGFDAHL”, the protein production entry was “failed”.
As for “MRVLFIGDVFGQPGRRVLQNHLPTIRPQFDFVIVNMENSAGGFGMHRDAARGALEAGAGCLTLGNHAWHHKDIYPMLSEDTYPIVRPLNYADPGTPGVGWRTFDVNGEKLTVVNLLGRVFMEAVDNPFRTMDALLERDDLGTVFVDFHAEATSEKEAMGWHLAGRVAAVIGTHTHVPTADTRILKGGTAYQTDAGFTGPHDSIIGSAIEGPLQRFLTERPHRYGVAEGRAELNGVALHFEGGKATAAERYRFIED”, the protein production result is “not failed”.
Under “MQFLAPIISIVVGFLSFVLVLRTWMQFCQVSAYLPLSQSLLRLTAPMVNPVSKFIPTVKNINFAALLIALALLAVEKGVLGLPLTMAVLVGLLGIIKMFGQILFFTTLIRALMSWVTRGDHPLDEVIAQITEPVLGIIRKILPRTGMLDFSVMVLGFGLLLLNNLFYSVFGAFWAVA” stands “failed”; under “MLNKVNLADIRSFVLIAQLGNFTKAAEALSVSRSHVSRQISGLEAQMGVTLLNRTTRTLRLTHAGERFYHDCEKALRDIDQALIAAVDDTQEIRGVIRVNCVGGYIGEDIIAKYVCEFMQQYPNVSIDLDFSSPRIDLIEDQFDVAFRMGELDDAGFVARKLMTVDMVTLASPSYVQQYGMPIHPKELAEHRTLTGSVARWSYRKADNPNDHTDVVVKGNLRCKNGRALVMGALHGNGIIRVPLSYCAEEVELGQLIKVMPNWEIPSVPFSAIFHRDRYQPKRLRTFIDFIKQKFEDS”, “failed”.
For the sequence “SNEELETAKEEMQSVNEELQTINSELHGKNELLLQANNDLQNLLDNTQIATIFLDDDLTVRNFTPAAREVFSLRDGDRGRPVTEITSLLSYDKLCEDVRTVQRTLGVVESQLDLEDESATYIMRIRPYRTVANVISGVVITFSNITEQKQQHDHLQVLMGELQHRTNNVFAVILAIARQTVRNS”, the protein production result is listed as “failed”.
Regarding “DQPVINFGIISTESSQNLKSIWEPFLKDMSQQTGYQVKAFFAPDYAGIIQGMRFDKVDIAWYGNKAAMEAVDRAHGEIFAQTVAASGAPGYWSLLIANKDSKIDSLEDMLANAKSLTFGNGDPNSTSGYLVPGYYVFAKNNVDPVKAFKRTLNSSHEVNALAVANKQVDVATFNTEGMERLELTQPEKARQLKVIWKSPLIPGDPLVWRNNLSDEQKNKLRDFFFKYGANAEQKKVLADLQWSKFQPSDDDQLLPIRQLELFKQRTDVANNANLGAEEKAAKLKALDEELAKLEKRMAEREQKTAANAG”, the protein production entry is “not failed”.
In the case of “MSDPYPATEAHAQRAAKSPPKSLLDRLLSLVRREPEDREGIKAILEAAHERELLDAESYAMIKGALAVSERTVADIMVPRSRMDLLDISQPLPQLLATIIETAHSRFPVYEDDRDNIIGILLAKDLLRYMLEPALDIRSLVRPAVFIPEVKRLNVLLREFRASRNHLAIVIDEHGGISGLVTMEDVLEQIVGDIEDEFDEDEEESIFPEGENQWRLTASTDISHFNATFATDLPDDEYDSVGGWLGGQLGRIPRRGDSADHDGLHIEVVRADARRALWLRVRRNAGAQPPASAAE”, the protein production result was “not failed”.
Under “MTNNTDIKNQTNPMSGDLLRQIIRLGFPVAIQSALVAILALADVLMVSDFGKEATAAVGIASKWHFVAIMIMAGLASANGTLVAQYWGRNDAVSAKTVTGIAIRFGLKVLIPVTLIITLGSELIMRLQTSDTRVIELGATYLWYAFPVLLLTHIVIVLEASMRSSGDTVTPLLMGAMTIVLNIGLNFWLIKGGFGIPAMGVAGAAFATTISRLFQVLAMIAYMRWRKHWLLEVKEGSERPSLWLSYRRLALPMTLGALLWAIGTMVYQMIFGHMGTTELAVFSMLGPFESLCYSIFFGISVACSVMIGQSLGRDAFEQAEHMAKFFIKAVFVFGISIGALLLLNRELIIAALNLDNPELYPLAAPAVMILCCAIWLRMLNMIIINGIIRAGGDNVFCLRMDFIAMWMTGLPLCAIAAFVLGWEFKYVYALMIAEEVVKLALCYRRYTQKYWIKNLTVVTTS” stands “not failed”.
On to “IGGHVGYGVAKSYRGKGYATILLEKALDELKTLNVEVVLMTCNPLNFASQTVMKKCGGYQIESYIKKNGKPVHRYHIPNT”, for which the protein production entry is on record as “failed”.
For “MLKKVIGILVIIAIISVGFFQKEAWLDAIKAGGMFSVLFSMLLIAADVFFPIVPFALIAALNGAVFGTANGIWITLTGSMLGTILLFFLARYSFRDWARKKVQAYPAIQSYEASFNKNAFTAVLLGRLIPVIPSLVMNVICGLSQVRWHVFFFASLIGKIPNIVVVTIAGANFTSNKLLSISIYGTYILIIMLVIYKKFPHLLKVPKK”, the protein production entry is listed as “failed”.
For “PLGLAPTASTTATLAMGDALAVALLIERGFRPEDFALFHPGGSLGKKLLLTVGDLMHSGDAVPLVGSATPIRDALFVITAKGLGITGVCAEDGALVGVVTDGDLRRSLGKGVDILNQPAGEIMTRNPKRINRSELAAKALQVMESHSITSLFVFDDTADNRPVGVIHLHDLLRA”, the protein production entry is “not failed”.
Regarding “MYYKFGEIKNKIISFNGFEFKVSAMKKHDGISIQVKDMNNVPLKSFHVVDLSELYIAMDAMRDVINEWIEENTDERDRLINLVMRW”, the protein production result was “failed”.
